From paper PMC9709975, “Chromatin-associated microprocessor assembly is regulated by the U1 snRNP auxiliary protein PRP40” (The Plant Cell, 2022) come the findings set out here.

The assay has as its target T1, PRE-MRNA PROCESSING PROTEIN 40b (AtPRP40b), recombinant (Arabidopsis thaliana, UniProt F4JCC1 1-992).
T1 construct: AtPRP40b, Arabidopsis thaliana U1 snRNP auxiliary protein; Made as MBP-6xHis-AtPRP40b from a pMal-derived plasmid; MBP cut off with TEV protease; Detected with anti-PRP40b; source: E. coli BL21-CodonPlus(DE3)-RIL, purified (Ni-NTA, TEV cleavage, second Ni-NTA, size exclusion chromatography); not shown: MBP, N-terminal, cleaved
T1 sequence (looked up): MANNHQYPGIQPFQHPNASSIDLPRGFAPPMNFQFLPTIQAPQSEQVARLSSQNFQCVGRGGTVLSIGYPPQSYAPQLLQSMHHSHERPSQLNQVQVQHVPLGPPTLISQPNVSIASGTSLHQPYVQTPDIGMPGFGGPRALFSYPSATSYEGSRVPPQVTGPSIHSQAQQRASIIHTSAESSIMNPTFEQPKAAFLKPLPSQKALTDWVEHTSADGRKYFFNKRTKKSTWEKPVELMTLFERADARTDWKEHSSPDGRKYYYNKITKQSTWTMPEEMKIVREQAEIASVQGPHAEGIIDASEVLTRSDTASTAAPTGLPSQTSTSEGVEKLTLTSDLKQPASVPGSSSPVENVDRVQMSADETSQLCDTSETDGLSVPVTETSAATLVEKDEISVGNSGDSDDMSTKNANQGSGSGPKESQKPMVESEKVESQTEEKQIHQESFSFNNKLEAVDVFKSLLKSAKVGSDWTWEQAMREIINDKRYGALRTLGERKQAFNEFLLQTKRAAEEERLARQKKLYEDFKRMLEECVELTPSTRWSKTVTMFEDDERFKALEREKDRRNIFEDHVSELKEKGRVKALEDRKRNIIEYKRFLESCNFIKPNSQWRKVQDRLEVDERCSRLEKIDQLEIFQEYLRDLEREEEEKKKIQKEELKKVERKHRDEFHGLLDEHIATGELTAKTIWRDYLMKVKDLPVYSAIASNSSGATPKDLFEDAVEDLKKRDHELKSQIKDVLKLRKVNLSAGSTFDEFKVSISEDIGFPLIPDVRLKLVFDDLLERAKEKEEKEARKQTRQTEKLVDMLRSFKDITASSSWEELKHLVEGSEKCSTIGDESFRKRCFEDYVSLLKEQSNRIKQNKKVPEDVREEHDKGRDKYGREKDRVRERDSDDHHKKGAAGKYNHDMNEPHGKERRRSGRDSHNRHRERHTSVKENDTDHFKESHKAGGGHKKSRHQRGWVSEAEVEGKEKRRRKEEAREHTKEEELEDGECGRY
As to the kind of experiment: pull-down; 2 µg biotinylated CTD peptide on streptavidin paramagnetic particles; 2 µg of SE variant and AtPRP40b together; 1.5 h at 4°C in PBS pH 8.3, 5% glycerol, 1 mM DTT, 0.1% NP-40; five washes, immunoblot. As to conditions: both partners purified.

B1: SERRATE (SE), full length, recombinant (natural protein, Arabidopsis thaliana, UniProt Q9ZVD0 1-720, looked up)
chain: MADVNLPPSDSVDNRLPEKSTSSSPPPPPPSSSLPQQEQEQDQQQLPLRRERDSRERRDERDIERPPPNRRERDRSPLPPPRRDYKRRPSLSPPPPYRDRRHSPPQRRSPPQKRYRRDDNGYDGRRGSPRGGYGPPDRRFGYDHGGGYDREMGGRPGYGDERPHGRFMGRYQDWEGGRGGYGDASNSGNPQRDGLMSYKQFIQELEDDILPSEAERRYQEYKSEYITTQKRAFFNTHKEEDWLKNKYHPTNLLSVIERRNDLAQKVAKDFLLDLQSGTLDLGPAVTALNKSGRTSEPNSEDEAAGVGKRKRHGMGGAKENELLSAAPKAPSFTSDPKRILTDVEQTQALVRKLDSEKKIEENVLQGSETEKSGREKLHSGSTGPVVIIRGLTSVKGLEGVELLDTLVTYLWRVHGLDYYGKVETNEAKGLRHVRAEGKVSDAKGDENESKFDSHWQERLKGQDPLEVMAAKEKIDAAATEALDPHVRKIRDEKYGWKYGCGAKGCTKLFHAAEFVYKHLKLKHTELVTELTTKVREELYFQNYMNDPNAPGGQPATQQSGPRDRPIRRKPSMENRLRDDRGGRRERDGRANGNDRNDRSEDQQRGDNDGGNPGEVGYDAFGGQGGVHVPPFLSDINPPPMLMPVPGAGPLGPFVPAPPEVAMQMFRDPSGPNPPFEGSGRGGPAPFLLSPAFRQDPRRLRSYQDLDAPEEEVTVIDYRSL
notes: SERRATE, Arabidopsis thaliana, core component of the plant microprocessor; full length (720 residues by the printed deletion Δ681-720); Made as MBP-6xHis-SE from a pMal-derived plasmid; MBP cut off with TEV protease; source: E. coli BL21-CodonPlus(DE3)-RIL, purified (Ni-NTA, TEV cleavage, second Ni-NTA, size exclusion chromatography); not shown: MBP, N-terminal, cleaved
In the case of B1, the binding result was “binds”.
